Laboratory results reported in patent publication US20220073608A1.

Key:
[1] = molecular target: hSEMA4D ECD-His (His-tagged human SEMA4D protein extracellular domain, Met22-Arg734) (human) (UniProt Q92854); experiment: ELISA, coated hSEMA4D ECD-His; Ab 0.107 nM
[2] = molecular target: hSEMA4D ECD-His (His-tagged human SEMA4D protein extracellular domain, Met22-Arg734) (human) (UniProt Q92854); experiment: ELISA, coated hSEMA4D ECD-His; Ab 0.0213 nM
[3] = molecular target: hSEMA4D ECD-His (His-tagged human SEMA4D protein extracellular domain, Met22-Arg734) (human) (UniProt Q92854); experiment: ELISA, coated hSEMA4D ECD-His; Ab 13.3 nM
[4] = molecular target: hSEMA4D ECD-His (His-tagged human SEMA4D protein extracellular domain, Met22-Arg734) (human) (UniProt Q92854); experiment: ELISA, coated hSEMA4D ECD-His; Ab 0.00085 nM
[5] = molecular target: hSEMA4D ECD-His (His-tagged human SEMA4D protein extracellular domain, Met22-Arg734) (human) (UniProt Q92854); experiment: ELISA, coated hSEMA4D ECD-His; Ab 0.0427 nM
[6] = molecular target: hSEMA4D ECD-His (His-tagged human SEMA4D protein extracellular domain, Met22-Arg734) (human) (UniProt Q92854); experiment: ELISA, coated hSEMA4D ECD-His; Ab 2.67 nM
[7] = molecular target: hSEMA4D ECD-His (His-tagged human SEMA4D protein extracellular domain, Met22-Arg734) (human) (UniProt Q92854); experiment: ELISA, coated hSEMA4D ECD-His; Ab 0.00213 nM
[8] = molecular target: T1, human SEMA4D, full length, on CHO-K1 cells (CHO-K1 hSEMA4D) (human) (UniProt Q92854); experiment: FACS, CHO-K1 hSEMA4D cells; Ab 66.7 nM
T1 sequence (looked up): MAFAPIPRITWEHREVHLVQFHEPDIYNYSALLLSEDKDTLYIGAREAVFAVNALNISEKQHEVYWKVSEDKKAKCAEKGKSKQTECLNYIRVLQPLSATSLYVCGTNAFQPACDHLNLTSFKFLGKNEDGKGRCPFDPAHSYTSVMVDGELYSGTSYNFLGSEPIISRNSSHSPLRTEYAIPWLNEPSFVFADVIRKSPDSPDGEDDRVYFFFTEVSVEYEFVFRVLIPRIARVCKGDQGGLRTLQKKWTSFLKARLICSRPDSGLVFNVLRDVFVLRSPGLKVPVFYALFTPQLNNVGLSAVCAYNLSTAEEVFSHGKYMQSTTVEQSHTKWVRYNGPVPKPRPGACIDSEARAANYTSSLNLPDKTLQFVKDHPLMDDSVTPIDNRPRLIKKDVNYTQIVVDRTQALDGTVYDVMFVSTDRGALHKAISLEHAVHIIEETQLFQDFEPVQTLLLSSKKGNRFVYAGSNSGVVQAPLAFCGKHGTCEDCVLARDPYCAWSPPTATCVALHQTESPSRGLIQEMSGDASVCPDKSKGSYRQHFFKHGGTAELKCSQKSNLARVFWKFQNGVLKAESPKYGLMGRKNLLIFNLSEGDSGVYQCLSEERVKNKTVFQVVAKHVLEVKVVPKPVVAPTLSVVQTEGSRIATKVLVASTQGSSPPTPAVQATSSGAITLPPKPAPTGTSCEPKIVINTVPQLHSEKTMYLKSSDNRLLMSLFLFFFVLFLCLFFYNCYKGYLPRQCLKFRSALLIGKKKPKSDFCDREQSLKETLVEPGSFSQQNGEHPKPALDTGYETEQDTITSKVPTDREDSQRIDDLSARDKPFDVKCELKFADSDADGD

[9] = molecular target: hSEMA4D ECD-His (His-tagged human SEMA4D protein extracellular domain, Met22-Arg734) (human) (UniProt Q92854); experiment: ELISA, coated hSEMA4D ECD-His; Ab 0.267 nM
[10] = molecular target: hSEMA4D ECD-His (His-tagged human SEMA4D protein extracellular domain, Met22-Arg734) (human) (UniProt Q92854); experiment: ELISA, coated hSEMA4D ECD-His; Ab 1.33 nM
[11] = molecular target: hSEMA4D ECD-His (His-tagged human SEMA4D protein extracellular domain, Met22-Arg734) (human) (UniProt Q92854); experiment: ELISA, coated hSEMA4D ECD-His; Ab 0.0533 nM
[12] = molecular target: hSEMA4D ECD-His (His-tagged human SEMA4D protein extracellular domain, Met22-Arg734) (human) (UniProt Q92854); experiment: ELISA, coated hSEMA4D ECD-His; Ab 6.67 nM
[13] = molecular target: hSEMA4D ECD-His (His-tagged human SEMA4D protein extracellular domain, Met22-Arg734) (human) (UniProt Q92854); experiment: ELISA, coated hSEMA4D ECD-His; Ab 0.0107 nM
[14] = molecular target: hSEMA4D ECD-His (His-tagged human SEMA4D protein extracellular domain, Met22-Arg734) (human) (UniProt Q92854); experiment: ELISA, coated hSEMA4D ECD-His; Ab 0.00427 nM
[15] = molecular target: monkey SEMA4D, full length, on CHO-K1 cells (CHO-K1 cSEMA4D) (monkey); experiment: FACS, CHO-K1 cSEMA4D cells; Ab 66.7 nM
[16] = molecular target: hSEMA4D ECD-His (His-tagged human SEMA4D protein extracellular domain, Met22-Arg734) (human) (UniProt Q92854); experiment: ELISA, coated hSEMA4D ECD-His; Ab 0.000085 nM

OD450 nm [1]	OD450 nm [2]	OD450 nm [3]	OD450 nm [4]	OD450 nm [5]	OD450 nm [6]	OD450 nm [7]	MFI [8]	OD450 nm [9]	OD450 nm [10]	OD450 nm [11]	OD450 nm [12]	OD450 nm [13]	OD450 nm [14]	MFI [15]	OD450 nm [16]	Substance
0.0717	0.0714	0.0766	0.0781	0.0754	0.074											Human IgG control (antibody)
						0.0718	214	0.0791	0.264	0.0805	0.533	0.0814	0.0789	339	0.0686	Mouse IgG control (antibody)
